The values below come from publication PMC2397435 (2008).

Sequences and labels used below:
B1: Gal4 DBD-HIV-1 p6 (wild type) [HIV-1 (pNL4-3)] / Gal4 AD-ALIX (868 amino acid-long) [not stated] (parent complex)
chain 1: LQSRPEPTAPPEESFRFGEETTTPSQKQEPIDKELYPLTSLRSLFGSDPSSQ
chain 2: MATFISVQLKKTSEVDLAKPLVKFIQQTYPSGGEEQAQYCRAAEELSKLRRAAVGRPLDKHEGALETLLRYYDQICSIEPKFPFSENQICLTFTWKDAFDKGSLFGGSVKLALASLGYEKSCVLFNCAALASQIAAEQNLDNDEGLKIAAKHYQFASGAFLHIKETVLSALSREPTVDISPDTVGTLSLIMLAQAQEVFFLKATRDKMKDAIIAKLANQAADYFGDAFKQCQYKDTLPKEVFPVLAAKHCIMQANAEYHQSILAKQQKKFGEEIARLQHAAELIKTVASRYDEYVNVKDFSDKINRALAAAKKDNDFIYHDRVPDLKDLDPIGKATLVKSTPVNVPISQKFTDLFEKMVPVSVQQSLAAYNQRKADLVNRSIAQMREATTLANGVLASLNLPAAIEDVSGDTVPQSILTKSRSVIEQGGIQTVDQLIKELPELLQRNREILDESLRLLDEEEATDNDLRAKFKERWQRTPSNELYKPLRAEGTNFRTVLDKAVQADGQVKECYQSHRDTIVLLCKPEPELNAAIPSANPAKTMQGSEVVNVLKSLLSNLDEVKKEREGLENDLKSVNFDMTSKFLTALAQDGVINEEALSVTELDRVYGGLTTKVQESLKKQEGLLKNIQVSHQEFSKMKQSNNEANLREEVLKNLATAYDNFVELVANLKEGTKFYNELTEILVRFQNKCSDIVFARKTERDELLKDLQQSIAREPSAPSIPTPAYQSSPAGGHAPTPPTPAPRTMPPTKPQPPARPPPPVLPANRAPSATAPSPVGAGTAAPAPSQTPGSAPPPQAQGPPYPTYPGYPGYCQMPMPMGYNPYAYGQYNMPYPPVYHQSPGQAPYPGPQQPSYPFPQPPQQSYYPQQ

In this test the parent is B1. In words: yeast two-hybrid, liquid β-galactosidase assay; yeast AH109, 30°C, SD/-Leu/-Trp selection medium; triplicate; parent: 1; read off a plot.
For the variant chain 1 R42A, the ratio to parent was roughly 0.25.

For the variant chain 1 P37A, the ratio to parent is roughly 0.3.

As to chain 1 E34A, the ratio to parent was roughly 0.35.

Take chain 1 I31A: the ratio to parent is roughly 0.95.

As for chain 1 S40A, the ratio to parent was roughly 1.

On to chain 1 L41A, for which the ratio to parent was roughly 0.15.

chain 1 T39A: the ratio to parent is roughly 1.1.

As for chain 1 G46A, the ratio to parent is roughly 0.95.

For the variant chain 1 D32A, the ratio to parent is roughly 0.86.

Consider chain 1 F45A, for which the ratio to parent is roughly 1.

Take chain 1 K33A: the ratio to parent is roughly 1.

In the case of chain 1 S43A, the ratio to parent was roughly 0.8.

In the case of chain 1 L44A, the ratio to parent was roughly 0.6.

Consider chain 1 L35A, for which the ratio to parent is roughly 0.2.
